Residue numbers refer to the chain shown, from its start.
B1: 75110_01A06A (antibody, V domains shown)
VH: EVQLVESGGGLVQPGGSLRLSCAASGFTFSSYWMSWVRQAPGKGLEWVANINEDGNEKYYVDSVKGRLTISRDNAKNSLYLQMNSLRAEDTAVYFCAREGGQWLSLDYWGQGALVTVSS
VL: DIQMTQSPSSVSASVGDRVSITCRASQGISSWLAWYQQKPGKAPKILIYGASSLQSGVPSRFSGSGSGTDFTLTISSLQPEDFATYYCQQANSFPWTFGQGTKVEIK
notes: Tested as antibody purified from AlivaMab Mouse hybridoma supernatant (captured by anti-mouse IgG Fc)
B2: 75110_02N15A (antibody, V domains shown)
VH: B1 VH with L68F, Y80F, S105A, Y108H
VL: B1 VL with S20T, I46F, Y49S, I106F
notes: as for B1
B3: 75110_03D16A (antibody, V domains shown)
VH: B1 VH with E53Q, N56G, L68F, F95Y, A97V, S105A, A113T
VL: B1 VL with S20T, A34T, I46F, G50A, S67F
notes: as for B1
B4: 75110_04K10A (antibody, V domains shown)
VH: B1 VH with E53Q, N56S, L68F, M83L, V93M, F95Y, A113T
VL: B1 VL with S20T, I46V, A51V, L54F, T72I
notes: as for B1
B5: 75110_01C18A (antibody, V domains shown)
VH: EVQLVESGGGLIQPGGSLRLSCAASGFTVSSNYMNWVRQAPGKGLEWVSVIYAGDNTYSADSVKGRFTISRDNSNNTLCLQMNSLRAEDTAVYYCAREGGTTGAFDIWGQGTMVTVSS
VL: B1 VL with S20T, S30N, I46L, G50A, A91G, W96Y, V104L
notes: as for B1
B6: 75110_01D24A (antibody, V domains shown)
VH: QVQLQQWGAGLLKPSETLSLTCAVYGGSFSGYYWSWIRQPPGKGLEWIGEINHSGSTNYNPSLKSRVTISVDTSENQFSLKLNSVTAADTAVYYCARLVNWFDPWGQGTLVTVSS
VL: EIQMTQSPSSVSASVGDRVTITCRASQDISNWLAWYQQKPGKAPNLLIFAASSLQTGVPSRFSGSGSGTDFTLTISSLQPDDFATYYCQQANSFPYSFGQGTNLGIK
notes: as for B1
B7: 75110_03L12A (antibody, V domains shown)
VH: B6 VH with K81T, N83I, A96V, V99I
VL: B6 VL with E1D, N45K, T56S, S97T
notes: as for B1
B8: 75110_04F22A (antibody, V domains shown)
VH: EVQLVESGGGLVQPGGSLRLSCAASGFTFSSYDIHWVRQATGKGLEWVSTIGTAGDTYYPGSVKGRFTISRENAKNSLYLQMNSLRAGDTAVYYCARGGYYYYGMDVWGQGTTVTVSS
VL: EIVLTQSPGTLSLSPGERATLSCRASQSVYSSYLAWYQQKPGQAPRLLIYGASSRATGIPDRFSGSGSGTDFTLTISRLEPEDFAVYYCQQFGTSPFTFGPGTKVDIK
notes: as for B1
B9: 75110_01E08A (antibody, V domains shown)
VH: B8 VH with S30N, S31N, I34M, G61A, S70Y, Y100D
VL: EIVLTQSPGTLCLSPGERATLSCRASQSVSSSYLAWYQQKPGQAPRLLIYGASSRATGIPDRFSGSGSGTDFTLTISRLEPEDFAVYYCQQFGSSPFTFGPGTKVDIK
notes: as for B1
B10: 75110_01G11A (antibody, V domains shown)
VH: B8 VH with I34M, K75R, Y79F, Y100D
VL: B8 VL with S14F, S28N, V29T, S54N, F92H
notes: as for B1
B11: 75110_01J17A (antibody, V domains shown)
VH: B8 VH with I34M, A40G, G55D, K75E, Y100D
VL: B8 VL with T5A, S31I, S77T, T94S, I107F
notes: as for B1
B12: 75110_01K10A (antibody, V domains shown)
VH: B8 VH with G10A, S30R, S31N, I34M, Y100D
VL: B8 VL with G9D, V29L, Y30S, S32V, S66T, F92Y, T94S
notes: as for B1
B13: 75110_01N04A (antibody, V domains shown)
VH: B8 VH with S31N, I34M, Y100D, Y101F, M105L
VL: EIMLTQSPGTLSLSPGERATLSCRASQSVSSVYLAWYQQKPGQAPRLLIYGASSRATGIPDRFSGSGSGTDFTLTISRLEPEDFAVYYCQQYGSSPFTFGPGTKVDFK
notes: as for B1
B14: 75110_02I18A (antibody, V domains shown)
VH: B8 VH with L4V, I34M
VL: B8 VL with Y30S, A44S, Y50H, F63V, F92Y, T94S
notes: as for B1
B15: 75110_04P06A (antibody, V domains shown)
VH: B8 VH with S31N, I34M, Y100D
VL: B8 VL with G9D, V29L, Y30S, S32V, S77N, A85V, F92Y, T94S
notes: as for B1
B16: 75110_05F19A (antibody, V domains shown)
VH: B8 VH with S31N, I34V, A40P, Y101D, M105L
VL: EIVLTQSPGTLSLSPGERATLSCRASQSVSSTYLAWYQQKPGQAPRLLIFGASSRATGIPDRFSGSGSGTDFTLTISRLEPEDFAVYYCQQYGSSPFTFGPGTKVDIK
notes: as for B1
B17: 75110_01H18A (antibody, V domains shown)
VH: B6 VH with P40S, H53Q, E75K, N83S, L98V, V99I, P104S
VL: B1 VL with S20T, I46L, G50A, L54F, P80T, W96Y, K103R, V104L
notes: as for B1
B18: 75110_03C01A (antibody, V domains shown)
VH: B6 VH with P40S, H53Q, E75K, N76D, N83S, L98V, V99I, P104S, T109S
VL: B1 VL with S20T, K42N, I46L, G50D, L54F, P80T, W96Y, V104L
notes: as for B1
B19: 75110_01J09A (antibody, V domains shown)
VH: B1 VH with A23V, I51T, N52K, N56S, E57D, L68F, S71C, F95Y, S105A, A113T
VL: B1 VL with S20T, T22N, K45N, I46L, Y49F, S67F, T72S, S76T, S77T, Y87H
notes: as for B1
B20: 75110_12K21A (antibody, V domains shown)
VH: B6 VH with Y25S, Y59C, E75N, N83S, L98V, V99L, W101Y, P104Y
VL: DIQMTQSPSSVSASVGDRVTITCRASPDIANWLAWYQQKPGKAPELLIYAASSLQSGVPSRFSGSGSGTDFTLTISSLQPEDFATYFCQQANSFPLTFGGGTKVESK
notes: Tested as antibody purified from AlivaMab Mouse Kappa hybridoma (human V regions, kappa light chain, mouse Fc captured by anti-mouse Fc sensors)
B21: 75110_13C13A (antibody, V domains shown)
VH: B6 VH with Y25S, Y59C, E75K, N83S, V92M, L98V, V99L, W101F, P104Y
VL: B20 VL with S7T, D28G, A30S
notes: as for B20
B22: 75110_13P21A (antibody, V domains shown)
VH: B6 VH with Y25S, Y59C, E75N, N83S, L98V, V99L, W101Y, P104Y
VL: B20 VL
notes: as for B20
B23: 75110_13P22A (antibody, V domains shown)
VH: QVQLQQWGAGLLKPSETLSLTCAAYGGSFSGYYWSWIRQSPGKGLEWIGEINQSGNTNYNPSLKSRVTISADTSKNQFSLKLSSVTAADTAVYYCARVLNWFDYWGQGILVTVSS
VL: B1 VL with S20T, S31D, P40S, K45D, I46L, Y49F, G50A, W96Y, V104L
notes: as for B20
B24: 75110_14G10A (antibody, V domains shown)
VH: EVQLVESGGGLVKPGGSLRLSCAASGFTFSSYSMNWVRQAPGKGLEWVSFISSSSSYIYYADSVKGRFTISRDNAKNSLYLQMNSLRAEDTAVYYCARERGDDYGDYEGAFDIWGQGTMVTVSS
VL: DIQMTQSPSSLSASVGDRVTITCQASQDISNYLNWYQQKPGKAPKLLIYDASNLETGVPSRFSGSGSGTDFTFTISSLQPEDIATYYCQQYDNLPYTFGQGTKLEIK
notes: as for B20
B25: 75110_14I16A (antibody, V domains shown)
VH: QVQLQESGPGLVKPSETLSLTCTVSNGSISSYYWSWIRQSAGKGLEWIGRIYTSGSTNYNPSLKSRVTMLVDTSKNQFSLKLSSVTAADTAVYYCARDREDYYYYGMDVWGQGTTVTVSS
VL: DIQMTQSPSSLSASVGDRVTITCQASHDISNYLNWYQQKPGKAPKLLLYYASNLETGVPSRFSGSGSGTDFTFTITSLQPEDIGTYSCQQYDNLPLTFGGGTKVEIK
notes: Tested as antibody purified from AlivaMab Mouse Kappa hybridoma (human V regions, kappa light chain, mouse Fc captured by anti-mouse Fc sensors); also called 75110_14116A
B26: 75110_14N19A (antibody, V domains shown)
VH: QVQLQESGPGLVKPSETLSLTCTVSGGSISRYYWSWIRQPAGKGLEWIGRICTSENPNYNPALKSRVTMSVDTSKNQFSLKLSSVTAADTAVYYCARELERLNYYGMDVWGQGTTVTVSS
VL: DIQMTQFPSSLSASVGDRVTITCQASQDISNYLNWYQQKPGKAPKLLIYDASNLESGVPSRFSGRGSGTDFTFTISSLQPEDFATFYCQQYDTLPITFGQGTRLEIK
notes: as for B20

Assays:
[1] = target: T1, Recombinant human CD4 (R&D Systems, Cat. 10327-CD) (human, UniProt P01730 26-390, limits assumed); experiment: BLI Octet, mAb on anti-mouse Fc sensor, CD4 100/50/25 nM, 1:1 global fit;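 also: antibodies loaded at 10 µg/mL, an unrelated mouse-derived antibody served as internal reference control, association and dissociation phases fitted after Savitzky-Golay smoothing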
T1 construct: Soluble analyte in the Octet assay

[2] = target: T2, Recombinant human CD4 (R&D Systems, Cat. 10327-CD) (human, UniProt P01730 26-390, limits assumed); experiment: BLI (Octet Red384), purified antibody on anti-mouse Fc sensors, human CD4 100/50/25 nM, global 1:1 fit;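 also: antibodies loaded at 10 µg/mL, curves fitted across association and dissociation phases, with an unrelated mouse-derived antibody serving as internal reference control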
T2 construct: Bought protein; also called huCD4

Row | Binder | Kd [1] | Response [1] | koff [1] | kon [1] | Kd [2] | Response [2] | koff [2] | kon [2]
1 | B1 | 14 nM | 0.36 | 0.0014 s⁻¹ | 100000 M⁻¹ s⁻¹ | – | – | – | –
2 | B2 | 11 nM | 0.25 | 0.0017 s⁻¹ | 160000 M⁻¹ s⁻¹ | – | – | – | –
3 | B3 | 10 nM | 0.05 | 0.0008 s⁻¹ | 78000 M⁻¹ s⁻¹ | – | – | – | –
4 | B4 | 110 nM | 0.1 | 0.0042 s⁻¹ | 39000 M⁻¹ s⁻¹ | – | – | – | –
5 | B5 | 24 nM | 0.13 | 0.0047 s⁻¹ | 200000 M⁻¹ s⁻¹ | – | – | – | –
6 | B6 | 13 nM | 0.27 | 0.0017 s⁻¹ | 130000 M⁻¹ s⁻¹ | – | – | – | –
7 | B7 | 5.5 nM | 0.22 | 0.00076 s⁻¹ | 140000 M⁻¹ s⁻¹ | – | – | – | –
8 | B8 | 5.9 nM | 0.05 | 0.00021 s⁻¹ | 35000 M⁻¹ s⁻¹ | – | – | – | –
9 | B9 | 0.26 nM | 0.14 | 2e-05 s⁻¹ | 77000 M⁻¹ s⁻¹ | – | – | – | –
10 | B10 | 1.7 nM | 0.11 | 7.2e-05 s⁻¹ | 42000 M⁻¹ s⁻¹ | – | – | – | –
11 | B11 | 2.8 nM | 0.09 | 0.00012 s⁻¹ | 43000 M⁻¹ s⁻¹ | – | – | – | –
12 | B12 | < 0.001 nM | 0.05 | < 1e-07 s⁻¹ | 23000 M⁻¹ s⁻¹ | – | – | – | –
13 | B13 | 2.1 nM | 0.08 | 6.1e-05 s⁻¹ | 28000 M⁻¹ s⁻¹ | – | – | – | –
14 | B14 | 66 nM | 0.05 | 8.6e-05 s⁻¹ | 1300 M⁻¹ s⁻¹ | – | – | – | –
15 | B15 | < 0.001 nM | 0.07 | < 1e-07 s⁻¹ | 24000 M⁻¹ s⁻¹ | – | – | – | –
16 | B16 | < 0.001 nM | 0.05 | < 1e-07 s⁻¹ | 19000 M⁻¹ s⁻¹ | – | – | – | –
17 | B17 | 16 nM | 0.23 | 0.0016 s⁻¹ | 99000 M⁻¹ s⁻¹ | – | – | – | –
18 | B18 | 3 nM | 0.23 | 0.0004 s⁻¹ | 140000 M⁻¹ s⁻¹ | – | – | – | –
19 | B19 | 130 nM | 0.12 | 0.0048 s⁻¹ | 37000 M⁻¹ s⁻¹ | – | – | – | –
20 | B20 | – | – | – | – | 1.8 nM | 0.22 | 0.00021 s⁻¹ | 110000 M⁻¹ s⁻¹
21 | B21 | – | – | – | – | 11 nM | 0.21 | 0.0013 s⁻¹ | 120000 M⁻¹ s⁻¹
22 | B22 | – | – | – | – | 3 nM | 0.17 | 0.00029 s⁻¹ | 95000 M⁻¹ s⁻¹
23 | B23 | – | – | – | – | 14 nM | 0.16 | 0.0012 s⁻¹ | 86000 M⁻¹ s⁻¹
24 | B24 | – | – | – | – | 0.38 nM | 0.19 | 0.00019 s⁻¹ | 500000 M⁻¹ s⁻¹
25 | B25 | – | – | – | – | 10 nM | 0.14 | 0.0017 s⁻¹ | 160000 M⁻¹ s⁻¹
26 | B26 | – | – | – | – | 11 nM | 0.17 | 0.0014 s⁻¹ | 130000 M⁻¹ s⁻¹

From patent US20220112288A1 (published 2022)
